Among the data in the supplement of paper PMC10567573 are protein stability index values, retold here.

B1: SMARCE1 (parent)
chain: YHNSPAYLAYINAKSRAEAALEEE
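Also: lentivirally expressed fusions sorted by FACS into six bins by GFP to DsRed ratio, PSI derived from sequencing read proportions per bin multiplied by bin number.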

Variants of B1 are the subject of this series. Nature of the series: protein stability index of a GFP-peptide fusion (GPS, HEK-293T) (PSI 1-6); higher = more stable. Conditions: c terminus: a fixed tail appended.
Take YHNSPAYLAFINAKSRAEAALEEE [Y10F]: the protein stability index stood at 2.32.
The value for YHNSPAYLAPINAKSRAEAALEEE [Y10P] was 2.11; that for YHNSPAYLANINAKSRAEAALEEE [Y10N] was 2.05.
On to YHNSPAYLACINAKSRAEAALEEE [Y10C], for which the protein stability index worked out at 2.25.
The figure for YHNSPAYLAEINAKSRAEAALEEE [Y10E] is 2.94.
For the variant YHNSPAYLAAINAKSRAEAALEEE [Y10A], the protein stability index amounted to 3.76.
In the case of YHNSPAYLAMINAKSRAEAALEEE [Y10M], the protein stability index was 2.3.
The figure for YHNSPAYLALINAKSRAEAALEEE [Y10L] is 2; for YHNSPAYLATINAKSRAEAALEEE [Y10T] it is 3.44.
As for YHNSPAYLAWINAKSRAEAALEEE [Y10W], the protein stability index is 2.28.
With YHNSPAYLAKINAKSRAEAALEEE [Y10K], the protein stability index amounted to 3.03.
The value for YHNSPAYLAGINAKSRAEAALEEE [Y10G] was 1.75.
Consider YHNSPAYLAVINAKSRAEAALEEE [Y10V], for which the protein stability index is 2.41.
The figure for YHNSPAYLARINAKSRAEAALEEE [Y10R] is 3.34.
The value for YHNSPAYLASINAKSRAEAALEEE [Y10S] was 2.56.
On to YHNSPAYLADINAKSRAEAALEEE [Y10D], for which the protein stability index came out at 2.37.
The value for YHNSPAYLAIINAKSRAEAALEEE [Y10I] was 3; that for YHNSPAYLAHINAKSRAEAALEEE [Y10H] was 1.68; that for YHNSPAYLAQINAKSRAEAALEEE [Y10Q] was 2.19.
The figure for YHNSPAYLAYINAKWRAEAALEEE [S15W] is 2.08.
On to YHNSPAYLAYINAKDRAEAALEEE [S15D], for which the protein stability index worked out at 2.06.
The value for YHNSPAYLAYINAKYRAEAALEEE [S15Y] was 1.62; that for YHNSPAYLAYINAKMRAEAALEEE [S15M] was 2.14; that for YHNSPAYLAYINAKRRAEAALEEE [S15R] was 2.04.
The value for YHNSPAYLAYINAKHRAEAALEEE [S15H] was 2.59.
For the variant YHNSPAYLAYINAKQRAEAALEEE [S15Q], the protein stability index stood at 2.17.
The value for YHNSPAYLAYINAKNRAEAALEEE [S15N] was 2.29; that for YHNSPAYLAYINAKLRAEAALEEE [S15L] was 2.42.
YHNSPAYLAYINAKPRAEAALEEE [S15P]: the protein stability index was determined as 1.61.
The figure for YHNSPAYLAYINAKARAEAALEEE [S15A] is 2.53.
The figure for YHNSPAYLAYINAKFRAEAALEEE [S15F] is 2.06.
The figure for YHNSPAYLAYINAKERAEAALEEE [S15E] is 2.29.
On to YHNSPAYLAYINAKKRAEAALEEE [S15K], for which the protein stability index is 2.31.
The value for YHNSPAYLAYINAKTRAEAALEEE [S15T] was 2.
The value for YHNSPAYLAYINAKGRAEAALEEE [S15G] was 2.11; that for YHNSPAYLAYINAKVRAEAALEEE [S15V] was 2.26; that for YHNSPAYLAYINAKCRAEAALEEE [S15C] was 3.03.
The value for YHNSPAYLAYINAKIRAEAALEEE [S15I] was 2.25; that for YHNSPAYLAYINAKSRNEAALEEE [A17N] was 2.67.
Regarding YHNSPAYLAYINAKSRPEAALEEE [A17P], the protein stability index stood at 2.45.
With YHNSPAYLAYINAKSRFEAALEEE [A17F], the protein stability index was determined as 2.24.
Regarding YHNSPAYLAYINAKSRLEAALEEE [A17L], the protein stability index was determined as 2.04.
Turning to YHNSPAYLAYINAKSRREAALEEE [A17R], the protein stability index came to 1.68.
As for YHNSPAYLAYINAKSRTEAALEEE [A17T], the protein stability index was 2.02.
For the variant YHNSPAYLAYINAKSRMEAALEEE [A17M], the protein stability index was determined as 2.23.
The figure for YHNSPAYLAYINAKSRQEAALEEE [A17Q] is 3.13.
The value for YHNSPAYLAYINAKSRVEAALEEE [A17V] was 2.19; that for YHNSPAYLAYINAKSRSEAALEEE [A17S] was 2.06; that for YHNSPAYLAYINAKSRYEAALEEE [A17Y] was 2.05.
The value for YHNSPAYLAYINAKSREEAALEEE [A17E] was 1.75.
Turning to YHNSPAYLAYINAKSRHEAALEEE [A17H], the protein stability index came out at 2.22.
YHNSPAYLAYINAKSRKEAALEEE [A17K]: the protein stability index is 1.53.
The figure for YHNSPAYLAYINAKSRCEAALEEE [A17C] is 2.1; for YHNSPAYLAYINAKSRIEAALEEE [A17I] it is 1.93; for YHNSPAYLAYINAKSRWEAALEEE [A17W] it is 2.17.
For the variant YHNSPAYLAYINAKSRDEAALEEE [A17D], the protein stability index worked out at 1.93.
The figure for YHNSPAYLAYINAKSRGEAALEEE [A17G] is 3.02; for YHNSPAYLAYINAKSRAAAALEEE [E18A] it is 2.58.
On to YHNSPAYLAYINAKSRAHAALEEE [E18H], for which the protein stability index amounted to 2.33.
The figure for YHNSPAYLAYINAKSRANAALEEE [E18N] is 2.21; for YHNSPAYLAYINAKSRARAALEEE [E18R] it is 1.97; for YHNSPAYLAYINAKSRAMAALEEE [E18M] it is 2.11.
The figure for YHNSPAYLAYINAKSRAQAALEEE [E18Q] is 1.51; for YHNSPAYLAYINAKSRAYAALEEE [E18Y] it is 2.15.
On to YHNSPAYLAYINAKSRACAALEEE [E18C], for which the protein stability index was 2.46.
The value for YHNSPAYLAYINAKSRAPAALEEE [E18P] was 1.88; that for YHNSPAYLAYINAKSRATAALEEE [E18T] was 1.82; that for YHNSPAYLAYINAKSRAVAALEEE [E18V] was 2.76.
For the variant YHNSPAYLAYINAKSRADAALEEE [E18D], the protein stability index stood at 2.4.
The value for YHNSPAYLAYINAKSRAIAALEEE [E18I] was 3.18.
On to YHNSPAYLAYINAKSRASAALEEE [E18S], for which the protein stability index amounted to 2.
Turning to YHNSPAYLAYINAKSRALAALEEE [E18L], the protein stability index worked out at 1.61.
Regarding YHNSPAYLAYINAKSRAFAALEEE [E18F], the protein stability index worked out at 2.37.
The figure for YHNSPAYLAYINAKSRAKAALEEE [E18K] is 3.05.
The value for YHNSPAYLAYINAKSRAWAALEEE [E18W] was 2.76.
Take YHNSPAYLAYINAKSRAGAALEEE [E18G]: the protein stability index was determined as 2.31.
The value for YHNSPAYLAYINGKSRAEAALEEE [A13G] was 2.27; that for YHNSPAYLAYINQKSRAEAALEEE [A13Q] was 2.83; that for YHNSPAYLAYINDKSRAEAALEEE [A13D] was 1.94.
YHNSPAYLAYINTKSRAEAALEEE [A13T]: the protein stability index worked out at 2.28.
In the case of YHNSPAYLAYINIKSRAEAALEEE [A13I], the protein stability index worked out at 2.49.
Regarding YHNSPAYLAYINKKSRAEAALEEE [A13K], the protein stability index was found to be 2.52.
Take YHNSPAYLAYINCKSRAEAALEEE [A13C]: the protein stability index worked out at 3.05.
In the case of YHNSPAYLAYINVKSRAEAALEEE [A13V], the protein stability index worked out at 2.33.
The figure for YHNSPAYLAYINEKSRAEAALEEE [A13E] is 1.94; for YHNSPAYLAYINHKSRAEAALEEE [A13H] it is 2.88.
The figure for YHNSPAYLAYINRKSRAEAALEEE [A13R] is 2.51; for YHNSPAYLAYINWKSRAEAALEEE [A13W] it is 1.64.
The figure for YHNSPAYLAYINSKSRAEAALEEE [A13S] is 1.83; for YHNSPAYLAYINLKSRAEAALEEE [A13L] it is 2.21.
Turning to YHNSPAYLAYINPKSRAEAALEEE [A13P], the protein stability index stood at 2.63.
Turning to YHNSPAYLAYINFKSRAEAALEEE [A13F], the protein stability index worked out at 2.06.
The value for YHNSPAYLAYINYKSRAEAALEEE [A13Y] was 2.13.
For YHNSPAYLAYINMKSRAEAALEEE [A13M], the protein stability index came out at 3.18.
